Numbering of substitutions follows the chain as printed. Names may count otherwise.
T1: CydD, subunit of the heterodimeric ABC transporter CydDC (Escherichia coli, UniProt P29018 1-588)
T1 sequence: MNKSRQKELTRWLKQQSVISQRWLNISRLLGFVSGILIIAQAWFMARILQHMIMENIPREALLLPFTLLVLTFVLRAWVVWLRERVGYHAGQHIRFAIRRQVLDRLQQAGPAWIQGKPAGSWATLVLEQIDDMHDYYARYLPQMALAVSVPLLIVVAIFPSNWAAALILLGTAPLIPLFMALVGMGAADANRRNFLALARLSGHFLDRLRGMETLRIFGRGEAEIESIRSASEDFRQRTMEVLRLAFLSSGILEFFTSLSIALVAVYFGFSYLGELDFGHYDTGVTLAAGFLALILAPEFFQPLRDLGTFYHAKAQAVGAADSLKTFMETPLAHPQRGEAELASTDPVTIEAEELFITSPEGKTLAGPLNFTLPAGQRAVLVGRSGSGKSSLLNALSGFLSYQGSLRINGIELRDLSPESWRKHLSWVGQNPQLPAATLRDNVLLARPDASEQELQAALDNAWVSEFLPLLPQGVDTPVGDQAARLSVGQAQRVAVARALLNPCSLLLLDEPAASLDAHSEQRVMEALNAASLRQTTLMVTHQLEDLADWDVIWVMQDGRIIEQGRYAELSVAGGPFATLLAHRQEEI

B1: CydC, subunit of the heterodimeric ABC transporter CydDC (wild type) (natural protein, Escherichia coli)
chain: MRALLPYLALYKRHKWMLSLGIVLAIVTLLASIGLLTLSGWFLSASAVAGVAGLYSFNYMLPAAGVRGAAITRTAGRYFERLVSHDATFRVLQHLRIYTFSKLLPLSPAGLARYRQGELLNRVVADVDTLDHLYLRVISPLVGAFVVIMVVTIGLSFLDFTLAFTLGGIMLLTLFLMPPLFYRAGKSTGQNLTHLRGQYRQQLTAWLQGQAELTIFGASDRYRTQLENTEIQWLEAQRRQSELTALSQAIMLLIGALAVILMLWMASGGVGGNAQPGALIALFVFCALAAFEALAPVTGAFQHLGQVIASAVRISDLTDQKPEVTFPDTQTRVADRVSLTLRDVQFTYPEQSQQALKGISLQVNAGEHIAILGRTGCGKSTLLQQLTRAWDPQQGEILLNDSPIASLNEAALRQTISVVPQRVHLFSATLRDNLLLASPGSSDEALSEILRRVGLEKLLEDAGLNSWLGEGGRQLSGGELRRLAIARALLHDAPLVLLDEPTEGLDATTESQILELLAEMMREKTVLMVTHRLRGLSRFQQIIVMDNGQIIEQGTHAELLARQGRYYQFKQGL
B2: CydC H85A (histidine to alanine exchange at position 85), subunit of CydDC^H85A (natural protein, Escherichia coli)
chain: B1 chain with H85A
B3: CydC E500Q (Walker B glutamate to glutamine mutant), subunit of CydDC^E500Q (natural protein, Escherichia coli)
chain: B1 chain with E500Q

Each binder was assayed against T1, CydD, subunit of the heterodimeric ABC … (assay: cryo-EM structure).

Binding result, binds:
B1, B2, B3

Reference: doi:10.1101/2022.04.07.487047 (bioRxiv, 2022)
